In article PMC6736767:
Like-named read-outs stand apart in the source and are kept apart here.

T1: BpuR (Borrelia burgdorferi, UniProt O51076 1-122)
T1 sequence: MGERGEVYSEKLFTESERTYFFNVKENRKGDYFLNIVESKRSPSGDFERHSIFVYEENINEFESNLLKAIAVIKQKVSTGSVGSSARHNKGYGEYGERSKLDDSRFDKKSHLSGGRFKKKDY


Legend:
BpuR [1] = target: T1, BpuR; assay: EMSA
BpuR [2] = target: T1, BpuR; assay: EMSA; remark: listed apart in the source

Binder | binding result (BpuR [1]) | binding result (BpuR [2])
sodA1 (ssRNA) RNA: AAUGAGCCUUGUUAUUGUGGAAGUGGGAAGAAAUAUAAAAAUUGUCAUGGCAAAAGUUA | binds | 
bpuR RNA (ssRNA) RNA: ACGUUAAAUGUAGUCAAGUACAAAAACUUGUGUGGAGGAAAUUGAUGGGAGAGAGAGGGGAAGUAUACU | binds | 
sodA2 (ssRNA) RNA: UCAUGGCAAAAGUUAAAACAGGAGGUUUUUAUGUUUAAGCUGCCAGAACUUGGUUAUGAU |  | no binding
